Reference: article PMC10652100, “Bacterial RNA-free RNase P: Structural and functional characterization of multiple oligomeric forms of a minimal protein-only ribonuclease P” (The Journal of Biological Chemistry, 2023)

Tests used:
[1] = molecular target: the molecule itself; assay: SEC; oligomers seen when purifying Aq880 (Superdex 200 pg 16/600; 50 mM Tris pH 8.5, 150 mM NaCl, 1 mM TCEP)
[2] = molecular target: the molecule itself; assay: native MS; His-tagged Hth1307 in 200 mM ammonium acetate pH 7, nano-electrospray, Q-Exactive UHMR; 500-1000 nM protein
[3] = molecular target: the molecule itself; assay: SEC; analytical, Superdex 200 Increase 5/150 GL, 50 mM Tris pH 8.5, 150 mM NaCl, 1 mM TCEP; Hth1307 from 93.6 nM upwards; A280
[4] = molecular target: the molecule itself; assay: crystal structure; lower molecular weight fraction of Hth1307; 2 M ammonium sulfate, 0.1 M Bis-Tris pH 5.5, 4 C; space group C2221, two protomers in the asymmetric unit; tetramer by crystal symmetry

B1: Aquifex aeolicus HARP (Aq880) (enzyme)
chain: MDVFVLDTSVFTNPEIYRTFEEDQRGAMETFIHLALNSRAEFYMPTSVYTEMRKIMDVGELWAEFEMVVKIRSPRRFQLTVPADFLYEFIEELRYRINKGLRIAEEHTREASGCEDVGKLIARLREKYREALRQGILDSKEDVDVLLLAYELDGVLVSADEGLRTWADKIGIKLIDPKNFKNILESLVRHRF
notes: HARP (RNA-free RNase P) of Aquifex aeolicus, Aq880, 23 kDa; gene synthesised by Integrated DNA Technologies; Cloned into pMCSG7 (N-terminal His6 tag and TEV site); the tag was removed with TEV protease, and residues of the site may be left at the N-terminus (surmised); also called HARP from A. aeolicus; Homolog of Aquifex RNase P; source: E. coli BL21 Rosetta DE3, purified (Ni-Sepharose, DEAE, …)
stoichiometry N [1]: 4

B2: His-tagged Hth1307 (enzyme, Hydrogenobacter thermophilus)
chain: MDTFVLDTSVFTNPDVYHQFEEDQLGAIENFISLASHTNANFFMPTSVYYEFTKMVSLGDLAPKFELVVRIRSPRKWGLMVPAEFLYEFIEEVRYRINKGLRIAEEHTKEAGKLAEEEVGRVVNRLREKYREALRAGIIDSKEDVDVLLLSYELDAILVSGDEGLRKWADRVGIKLIDPKNLRYIMENLTKVGR
notes: HARP (RNA-free RNase P) of Hydrogenobacter thermophilus, Hth1307; gene synthesised by Integrated DNA Technologies; Same construct as m2 (pMCSG7, N-terminal His6 and TEV site) with the tag left on; also called His-tagged Hydrogenobacter thermophilus HARP; source: E. coli BL21 Rosetta DE3, purified; not shown: His6, N-terminal, kept; copies: 14
stoichiometry N [2]: 14

B3: Hydrogenobacter thermophilus HARP (Hth1307) (enzyme)
chain: MDTFVLDTSVFTNPDVYHQFEEDQLGAIENFISLASHTNANFFMPTSVYYEFTKMVSLGDLAPKFELVVRIRSPRKWGLMVPAEFLYEFIEEVRYRINKGLRIAEEHTKEAGKLAEEEVGRVVNRLREKYREALRAGIIDSKEDVDVLLLSYELDAILVSGDEGLRKWADRVGIKLIDPKNLRYIMENLTKVGR
notes: HARP (RNA-free RNase P) of Hydrogenobacter thermophilus, Hth1307; gene synthesised by Integrated DNA Technologies; Cloned into pMCSG7 (N-terminal His6 tag and TEV site); the tag was removed with TEV protease by the general purification protocol; also called Ht HARP; source: E. coli BL21 Rosetta DE3, purified (Ni-Sepharose, DEAE, TEV cleavage, second Ni-Sepharose, SEC); not shown: His6, …
stoichiometry N [3]: 14 | stoichiometry N [4]: 4
